First the molecules themselves.
B1: gRNA-EQSC-EGFP-g1 ; EGFP target EQSC g1 (ssRNA ; dsDNA)
RNA: GCCCAUCCUGGUCGAGCUGGACGGUCUUGAGCUCGGAAACGAGACUCCAGACAAGGGGAACCUACAACGGUAGGUUCACCCGUAGGGUUACCCCCGCGUCAUCUUCGGAAGGCGCGGGGCGAACUCUUUUUU
DNA 1: GGTGCCCATCCTGGTCGAGCTGGACGGCGACGTAAAC
DNA 2: GTTTACGTCGCCGTCCAGCTCGACCAGGATGGGCACC
B2: gRNA-EQSC-EGFP-g3 ; EGFP target EQSC g3 (ssRNA ; dsDNA)
RNA: GCACGACUUCUUCAAGUCCGCCAGUCUUGAGCUCGGAAACGAGACUCCAGACAAGGGGAACCUACAACGGUAGGUUCACCCGUAGGGUUACCCCCGCGUCAUCUUCGGAAGGCGCGGGGCGAACUCUUUUUU
DNA 1: GCAGCACGACTTCTTCAAGTCCGCCATGCCCGAAGGC
DNA 2: GCCTTCGGGCATGGCGGACTTGAAGAAGTCGTGCTGC
B3: gRNA-EQSC-EGFP-g2 ; EGFP target EQSC g2 (ssRNA ; dsDNA)
RNA: UGCAGAUGAACUUCAGGGUCAGCGUCUUGAGCUCGGAAACGAGACUCCAGACAAGGGGAACCUACAACGGUAGGUUCACCCGUAGGGUUACCCCCGCGUCAUCUUCGGAAGGCGCGGGGCGAACUCUUUUUU
DNA 1: TGGTGCAGATGAACTTCAGGGTCAGCTTGCCGTAGGT
DNA 2: ACCTACGGCAAGCTGACCCTGAAGTTCATCTGCACCA
B4: gRNA-BDLP-EGFP-g3 ; EGFP target BDLP g3 (ssRNA ; dsDNA)
RNA: GUAGUUGCCGUCGUCCUUGAAGAAGUCUUGAGCUCGGAAACGAGACUCCAGACAAGGGGAGUCUACAACAGUAGGUUCACCCGUAGGGUUACCCCCGCGUCAUCCUCGGAAGGCGCGGGGCGAACUCUUUUUU
DNA 1: CTTGTAGTTGCCGTCGTCCTTGAAGAAGATGGTGCG
DNA 2: CGCACCATCTTCTTCAAGGACGACGGCAACTACAAG
B5: gRNA-BDLP-EGFP-g2 ; EGFP target BDLP g2 (ssRNA ; dsDNA)
RNA: GGGGUAGCGGCUGAAGCACUGCAGUCUUGAGCUCGGAAACGAGACUCCAGACAAGGGGAGUCUACAACAGUAGGUUCACCCGUAGGGUUACCCCCGCGUCAUCCUCGGAAGGCGCGGGGCGAACUCUUUUUU
DNA 1: GTCGGGGTAGCGGCTGAAGCACTGCACGCCGTAGG
DNA 2: CCTACGGCGTGCAGTGCTTCAGCCGCTACCCCGAC
B6: gRNA-BDLP-EGFP-g1 ; EGFP target BDLP g1 (ssRNA ; dsDNA)
RNA: GCCCAUCCUGGUCGAGCUGGACGGGUCUUGAGCUCGGAAACGAGACUCCAGACAAGGGGAGUCUACAACAGUAGGUUCACCCGUAGGGUUACCCCCGCGUCAUCCUCGGAAGGCGCGGGGCGAACUCUUUUUU
DNA 1: GGTGCCCATCCTGGTCGAGCTGGACGGCGACGTAAA
DNA 2: TTTACGTCGCCGTCCAGCTCGACCAGGATGGGCACC

A value given as a limit tells only on which side of the number the result lay.

The target of one data set is T1, EQSC Type II Cas (metagenomic).
T1 chain: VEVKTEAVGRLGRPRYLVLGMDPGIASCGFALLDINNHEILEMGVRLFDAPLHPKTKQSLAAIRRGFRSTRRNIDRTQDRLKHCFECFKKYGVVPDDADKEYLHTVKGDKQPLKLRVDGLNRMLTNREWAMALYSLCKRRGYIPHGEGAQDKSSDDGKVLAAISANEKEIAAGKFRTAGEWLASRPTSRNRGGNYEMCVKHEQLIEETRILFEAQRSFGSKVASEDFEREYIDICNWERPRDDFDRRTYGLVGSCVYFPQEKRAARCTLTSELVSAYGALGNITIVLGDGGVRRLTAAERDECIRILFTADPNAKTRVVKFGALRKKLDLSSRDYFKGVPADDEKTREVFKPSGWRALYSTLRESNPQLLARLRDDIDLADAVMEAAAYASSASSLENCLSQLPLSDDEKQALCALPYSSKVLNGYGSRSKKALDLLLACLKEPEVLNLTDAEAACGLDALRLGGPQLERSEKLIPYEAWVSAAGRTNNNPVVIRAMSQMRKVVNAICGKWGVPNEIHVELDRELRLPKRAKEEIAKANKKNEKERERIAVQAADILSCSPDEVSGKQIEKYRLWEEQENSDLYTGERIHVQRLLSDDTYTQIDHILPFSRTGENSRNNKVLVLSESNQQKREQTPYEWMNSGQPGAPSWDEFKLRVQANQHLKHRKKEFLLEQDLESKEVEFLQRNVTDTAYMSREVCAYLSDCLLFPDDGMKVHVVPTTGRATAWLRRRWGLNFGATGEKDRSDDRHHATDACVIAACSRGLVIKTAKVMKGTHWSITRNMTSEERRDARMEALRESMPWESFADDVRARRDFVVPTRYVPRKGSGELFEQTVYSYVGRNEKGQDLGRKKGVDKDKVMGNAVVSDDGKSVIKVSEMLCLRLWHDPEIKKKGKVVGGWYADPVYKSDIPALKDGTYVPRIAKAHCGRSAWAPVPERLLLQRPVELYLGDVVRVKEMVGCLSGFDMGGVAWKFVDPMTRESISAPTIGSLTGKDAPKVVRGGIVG
In words: cell_activity; PAM NNNNCNNA; U2OS-EGFP. To be noted: tags: N-terminal SV5 tag and NLS, C-terminal NLS.
As to B1, the activity was more than 90 % EGFP KO.
Still for that read-out and setting: the same measure for B2: more than 90 % EGFP KO.
Still for that read-out and setting: the same measure for B3: more than 90 % EGFP KO.

For another data set, the target named is T2, BDLP Type II Cas (metagenomic).
T2 chain: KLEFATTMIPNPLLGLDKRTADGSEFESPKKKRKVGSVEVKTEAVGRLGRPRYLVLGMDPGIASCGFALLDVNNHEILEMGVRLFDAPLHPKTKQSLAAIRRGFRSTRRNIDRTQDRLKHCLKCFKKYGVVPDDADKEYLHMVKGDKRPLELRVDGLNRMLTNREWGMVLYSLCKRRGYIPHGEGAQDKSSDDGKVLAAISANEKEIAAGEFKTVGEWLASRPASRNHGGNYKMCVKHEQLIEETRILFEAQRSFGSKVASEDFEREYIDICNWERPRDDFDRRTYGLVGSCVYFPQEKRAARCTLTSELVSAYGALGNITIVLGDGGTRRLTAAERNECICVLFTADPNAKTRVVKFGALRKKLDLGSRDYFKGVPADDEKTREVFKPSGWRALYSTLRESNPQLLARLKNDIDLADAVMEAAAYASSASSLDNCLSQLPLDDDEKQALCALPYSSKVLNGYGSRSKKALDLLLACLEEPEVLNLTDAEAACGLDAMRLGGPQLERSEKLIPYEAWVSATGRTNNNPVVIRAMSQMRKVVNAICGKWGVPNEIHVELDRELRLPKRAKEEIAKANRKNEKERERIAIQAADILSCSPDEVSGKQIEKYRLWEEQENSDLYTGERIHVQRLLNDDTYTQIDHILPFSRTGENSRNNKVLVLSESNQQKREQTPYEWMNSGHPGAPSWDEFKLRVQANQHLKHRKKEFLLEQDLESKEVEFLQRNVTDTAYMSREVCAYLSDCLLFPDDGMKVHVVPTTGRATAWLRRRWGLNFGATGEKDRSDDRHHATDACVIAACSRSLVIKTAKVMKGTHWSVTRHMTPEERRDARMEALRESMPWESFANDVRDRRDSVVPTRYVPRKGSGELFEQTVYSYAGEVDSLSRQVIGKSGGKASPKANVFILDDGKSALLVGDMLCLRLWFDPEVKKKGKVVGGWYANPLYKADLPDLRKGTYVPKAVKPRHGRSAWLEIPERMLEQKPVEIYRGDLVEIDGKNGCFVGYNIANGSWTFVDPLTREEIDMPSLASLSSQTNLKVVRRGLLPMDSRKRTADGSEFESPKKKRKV
Put plainly: cell_activity; PAM NNNNGT; U2OS-EGFP. Conditions: tags: N-terminal SV5 tag and NLS, C-terminal NLS.
In turn, B4 had an activity of more than 90 % EGFP KO.
Consider B5, for which the activity was more than 90 % EGFP KO.
The same measure, in the same setting: with B6 the figure was more than 90 % EGFP KO.

(Values after patent US20260176603, “TYPE II CAS PROTEINS AND APPLICATIONS THEREOF” (Alia Therapeutics Srl, published 2026).)
